The values below come from patent US7642046B2, “Method for monitoring recruitment of proteins to the intracellular domain of a receptor in intact cells” (priority 2001, dated 2010).

What all share (assay type): cell-based
In test [1] the target is T1, LTβR (Homo sapiens, UniProt P25942+P36941).
T1 construct: cDNA fragments encoding for the transmembrane and cytoplasmic domains of the LTβR, TACI, the p75TNF receptor, CD27; expressed in transfected cells; host or cells: 293T
Nature of the test: Recruitment assay with hybrid receptor (CD40 extracellular domain, LTβR transmembrane and intracellular domain). The note with it: 293T cells. The procedure:
(§1) The recruitment of TRAF to CD40 can be quantitatively measured using the assay described in example 1. For that purpose, the assay conditions were adjusted in such a way that TRAF expression was in significant excess over the expression of CD40. This was the case when the TRAF expression plasmid was used at a two to three fold excess over the CD40 expression plasmid. The CD40 bound TRAF concentration was measured as described in example 1. A reference extract containing CD40/TRAF complexes served as a standard in each assay. This standard extract consisted of a large pool extract from cells that had been co-transfected with the plasmids encoding CD40/TRAF1, CD40/TRAF2, CD40/TRAF3, CD40/TRAF5 and CD40/TRAF6. The extracts were tested for the presence of CD40/TRAF complexes and the complex concentrations in each extract were arbitrarily defined as 1000 U/ml. The extracts were frozen in small aliquots and kept at −80° C. until further use. By comparing unknown samples to these extracts, it was possible to determine the relative CD40-TRAF complex concentrations in arbitrary units. The necessary normalization for sample-to-sample variations in the CD40 expression was calculated with the following formula: […]
Recruitment of various TRAFs to receptors different to CD40, was tested by the recruitment assay described in example 1 by transforming cells with expression plasmids encoding hybrids receptors comprising the extracellular domain of CD40 and transmembrane and intracellular domain of anyone of the following receptors: BCMA (Madry et al. 1998 and Hatzoglou et al. 2000) the LTβR-receptor (Mosialos et al. 1995, Crowe et al. 1994, Nakano et al. 1996), TACI (von Bulow et al. 1997, Xia et al. 2000) the p75TNFR (Rothe et al. 1994) and the CD27 (Gravestein et al. 1998, Akiba et al. 1998) (for details of constructs see example 7). Measurement of TRAF recruitment to the signalling domains of BCMA the LTβR-receptor TACI the p75TNFR or the CD27 was carried out by co-transfecting 293T cells with a plasmid encoding anyone of the above hybrid receptors together with a plasmid encoding TRAF and measurement of the TRAF/Receptor complex using the ELISA sandwich described in example 1 and the quantitation as described in example 3. The assay with the hybrid receptors is schematically represented in FIG. 4A. The results shown in FIG. 4B indicate that, using the assay monitoring recruitment in intact cells, any TRAF recruiting receptor of the TNF/NGF family can be examined with the same antibody sandwich assay described in example 1 and the amount of TRAF-receptor/CD40 hybrid complex can be monitored as described in example 3. […] Recruitment of TRAF3 to all the receptors tested is similar. […]

Test [2] addresses T2, CD40 mutants (Homo sapiens, UniProt P25942, E235A).
T2 construct: expressed in transfected cells; host or cells: 293T
Nature of the test: Recruitment assay in intact cells with CD40 mutants (deletions or point mutations in TRAF binding sites). To be noted: E235A, relative to wild type CD40. On the procedure: The lysates were cleared by centrifugation at 15000 G at 4° C. in a micro-centrifuge, 3 fold serially diluted (with lysis buffer containing 1% bovine serum albumin) and then every diluted sample incubated for 2 hours at room temperature (or overnight) in wells of ELISA microtiter plates coated with a mAb (Ro1) specific to the CD40 extra-cellular domain (Schwabe et al. 1997). For control purposes, instead of the wild type CD40 plasmid, a plasmid encoding a CD40 mutant lacking the entire signaling domain was used for transfection and transient expression (CD401-222, FIG. 1B). Following incubation exhaustive washes were carried out on the microtiter plates to remove any unbound protein [about 10 washing steps with PBS containing 0.05% Tween 20) PBS/Tween)]. To detect bound TRAF1, anti TRAF1 specific antibodies were loaded into the plates, incubated for about 3 hours at room temperature, […] by extensive washes to remove unbound antibody and detecting the bound antibody with an HRP conjugated secondary antibody. All antibodies (except when used as solid phase antibody) were diluted in PBS/Tween containing 1% BSA.
as §1
The quantitative version of the TRAF recruitment assay as described in example 3 was used to compare CD40 and various CD40 mutants with respect to their TRAF recruitment behaviour. TRAF 1, 2, 3, 5 and 6 were examined. […] Additional deletion of the TRAF1/2/3/5 binding motif PXQXT254 at amino acid position 250 to 254 reduced the binding of all 5 TRAFs test to background levels (1-254EA in FIG. 3B). […]

In test [3] the target is T3, p75TNFR (Homo sapiens, UniProt P20333+P25942).
T3 construct: cDNA fragments encoding for the transmembrane and cytoplasmic domains of the LTβR, TACI, the p75TNF receptor, CD27; expressed in transfected cells; host or cells: 293T
T3 sequence (P25942+P20333 fused): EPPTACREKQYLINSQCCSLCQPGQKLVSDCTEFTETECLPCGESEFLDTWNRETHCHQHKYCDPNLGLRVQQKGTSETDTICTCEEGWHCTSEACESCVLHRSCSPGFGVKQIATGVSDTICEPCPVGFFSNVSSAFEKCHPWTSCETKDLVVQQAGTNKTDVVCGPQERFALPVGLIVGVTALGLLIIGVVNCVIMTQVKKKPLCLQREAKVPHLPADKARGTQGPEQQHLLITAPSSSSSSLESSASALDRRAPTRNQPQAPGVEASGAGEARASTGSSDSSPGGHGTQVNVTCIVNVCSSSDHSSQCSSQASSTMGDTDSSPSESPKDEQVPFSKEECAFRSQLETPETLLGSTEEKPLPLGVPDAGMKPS
Nature of the test: Recruitment assay with hybrid receptor (CD40 extracellular domain, p75TNFR transmembrane and intracellular domain). The note with it: 293T cells. The procedure:
as §1, with “By comparing unknown samples to these extracts, it was possible to determine the relative CD40-TRAF complex concentrations in arbitrary units.” left out
Recruitment of various TRAFs to receptors different to CD40, was tested by the recruitment assay described in example 1 by transforming cells with expression plasmids encoding hybrids receptors comprising the extracellular domain of CD40 and transmembrane and intracellular domain of anyone of the following receptors: BCMA (Madry et al. 1998 and Hatzoglou et al. 2000) the LTβR-receptor (Mosialos et al. 1995, Crowe et al. 1994, Nakano et al. 1996), TACI (von Bulow et al. 1997, Xia et al. 2000) the p75TNFR (Rothe et al. 1994) and the CD27 (Gravestein et al. 1998, Akiba et al. 1998) (for details of constructs see example 7). Measurement of TRAF recruitment to the signalling domains of BCMA the LTβR-receptor TACI the p75TNFR or the CD27 was carried out by co-transfecting 293T cells with a plasmid encoding anyone of the above hybrid receptors together with a plasmid encoding TRAF and measurement of the TRAF/Receptor complex using the ELISA sandwich described in example 1 and the quantitation as described in example 3. […]

Test [4] addresses T4, TACI (Homo sapiens, UniProt O14836+P25942).
T4 construct: cDNA fragments encoding for the transmembrane and cytoplasmic domains of the LTβR, TACI, the p75TNF receptor, CD27; expressed in transfected cells; host or cells: 293T
Nature of the test: Recruitment assay with hybrid receptor (CD40 extracellular domain, TACI transmembrane and intracellular domain). The note with it: 293T cells. The procedure: as §1

The target in test [5] is T5, BCMA (Homo sapiens, UniProt P25942+Q02223).
T5 construct: transmembrane and intracellular domain of anyone of the following receptors: BCMA; expressed in transfected cells; host or cells: 293T
T5 sequence (P25942+Q02223 fused, species assumed): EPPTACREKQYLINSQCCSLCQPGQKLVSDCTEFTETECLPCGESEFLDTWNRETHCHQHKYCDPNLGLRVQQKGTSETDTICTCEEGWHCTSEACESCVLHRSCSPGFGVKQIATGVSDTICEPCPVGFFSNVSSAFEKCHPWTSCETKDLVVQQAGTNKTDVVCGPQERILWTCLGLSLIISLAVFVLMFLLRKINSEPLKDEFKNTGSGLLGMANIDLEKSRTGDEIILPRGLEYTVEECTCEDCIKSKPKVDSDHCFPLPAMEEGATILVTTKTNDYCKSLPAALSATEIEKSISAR
The test can be described thus: Recruitment assay with hybrid receptor (CD40 extracellular domain, BCMA transmembrane and intracellular domain). To be noted: 293T cells. The procedure: as §1

Test [6] concerns the target T6, CD27 (Homo sapiens, UniProt P25942+P26842).
T6 construct: cDNA fragments encoding for the transmembrane and cytoplasmic domains of the LTβR, TACI, the p75TNF receptor, CD27; expressed in transfected cells; host or cells: 293T
The test can be described thus: Recruitment assay with hybrid receptor (CD40 extracellular domain, CD27 transmembrane and intracellular domain). To be noted: 293T cells. On the procedure: as §1

Test [7] deals with T7, CD40 (Homo sapiens, UniProt P25942).
T7 construct: expressed in transfected cells; host or cells: HEK 293T
T7 sequence (P25942 21-277): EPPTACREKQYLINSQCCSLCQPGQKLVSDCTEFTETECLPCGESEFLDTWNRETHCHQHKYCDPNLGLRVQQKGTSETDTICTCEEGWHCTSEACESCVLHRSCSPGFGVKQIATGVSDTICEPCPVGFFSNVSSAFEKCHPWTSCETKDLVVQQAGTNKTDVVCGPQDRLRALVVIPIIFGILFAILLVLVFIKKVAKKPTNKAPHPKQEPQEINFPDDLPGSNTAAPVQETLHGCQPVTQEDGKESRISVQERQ
Nature of the test: Recruitment of NIK to CD40 via TRAF2 in 293T cells, anti-CD40 capture ELISA with anti NIK detection. The source says:
The assay described in example 1 can be used to measure recruitment of signal proteins, e.g. NIK (a downstream mediator in the NF-κB pathway Malinin et al. 1997) to a cytokine receptor, e.g. CD40 via an adaptor protein e.g. TRAF2. Expression plasmids encoding CD40, TRAF2, NIK (in pcDNA3.1) and myc-tagged IKKα were co-transfected into 293T (at a ratio of 1:1.75:1.75:1.75 respectively). Empty vector was used to equalize the amount of transfected DNA. The transfection was done as described for example 1. Twenty seven hours later the cells were extracted as described in example 1. The lysates were incubated with ELISA plates coated with an anti CD40 mAb (R01, Schwabe et al. 1997). After two hours the plates were washed with PBS/tween and developed with a commercially available rabbit anti NIK antibody (Santa Cruz at 1:100 dilution, SC-6363) and HRP-labeled goat anti rabbit Ig antibody (Pharmingen). The recruitment assay for NIK is schematically represented in FIG. 5A.

T1 sequence (P25942+P36941 fused): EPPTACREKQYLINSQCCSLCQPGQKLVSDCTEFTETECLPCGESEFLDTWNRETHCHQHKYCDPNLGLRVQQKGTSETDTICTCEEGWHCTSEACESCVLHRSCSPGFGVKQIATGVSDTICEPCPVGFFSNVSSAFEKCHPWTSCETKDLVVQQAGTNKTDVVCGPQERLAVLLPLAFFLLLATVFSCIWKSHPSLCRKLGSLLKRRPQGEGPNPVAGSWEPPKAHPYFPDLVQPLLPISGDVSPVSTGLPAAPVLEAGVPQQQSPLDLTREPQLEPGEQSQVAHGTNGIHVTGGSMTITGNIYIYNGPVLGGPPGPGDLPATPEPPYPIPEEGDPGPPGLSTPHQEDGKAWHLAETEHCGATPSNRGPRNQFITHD
T2 sequence (P25942 21-277 E235A): as the sequence (P25942 21-277) above, with E215A counted along it
T6 sequence (P25942+P26842 fused, species assumed): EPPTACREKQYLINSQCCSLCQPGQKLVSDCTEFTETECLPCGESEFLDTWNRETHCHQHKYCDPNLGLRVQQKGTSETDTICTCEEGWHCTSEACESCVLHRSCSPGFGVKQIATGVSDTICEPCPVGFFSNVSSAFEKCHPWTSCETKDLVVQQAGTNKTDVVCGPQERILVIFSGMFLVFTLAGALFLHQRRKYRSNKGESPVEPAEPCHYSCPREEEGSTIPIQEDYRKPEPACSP
T4 sequence (P25942+O14836 fused, species assumed): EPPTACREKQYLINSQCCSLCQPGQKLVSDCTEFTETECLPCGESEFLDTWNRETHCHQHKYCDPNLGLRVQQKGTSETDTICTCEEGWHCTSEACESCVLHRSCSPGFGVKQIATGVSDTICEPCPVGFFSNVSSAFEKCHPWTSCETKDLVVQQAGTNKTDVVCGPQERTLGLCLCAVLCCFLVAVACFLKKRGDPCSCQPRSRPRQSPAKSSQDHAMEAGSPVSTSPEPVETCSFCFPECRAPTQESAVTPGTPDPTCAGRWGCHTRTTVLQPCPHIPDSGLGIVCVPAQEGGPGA

B1: TRAF5: TRAF5 adaptor protein, expressed as tagged deletion mutant, amino acids 145 to 557 (protein, UniProt O00463 145-557, looked up, fragment)
chain: REPVLRKDLKEHLSASCQFRKEKCLYCKKDVVVINLQNHEENLCPEYPVFCPNNCAKIILKTEVDEHLAVCPEAEQDCPFKHYGCAVTDKRRNLQQHEHSALREHMRLVLEKNVQLEEQISDLHKSLEQKESKIQQLAETIKKLEKEFKQFAQLFGKNGSFLPNIQVFASHIDKSAWLEAQVHQLLQMVNQQQNKFDLRPLMEAVDTVKQKITLLENNDQRLAVLEEETNKHDTHINIHKAQLSKNEERFKLLEGTCYNGKLIWKVTDYKMKKREAVDGHTVSIFSQSFYTSRCGYRLCARAYLNGDGSGRGSHLSLYFVVMRGEFDSLLQWPFRQRVTLMLLDQSGKKNIMETFKPDPNSSSFKRPDGEMNIASGCPRFVAHSVLENAKNAYIKDDTLFLKVAVDLTDLEDL
modifications: His tag
In the case of B1, the “recruitment to LTβR, folds higher than recruitment to CD40” value in test [1] (CD40 as relative standard) was “about 152 fold”. Further, the “recruitment to CD40 mutant E235A” value in test [2] is listed as “reduced recruitment”.

B2: TRAF3: TNF receptor associated factor 3, adaptor protein expressed from pcDNA3 (protein, UniProt Q13114 1-568, looked up)
chain: MESSKKMDSPGALQTNPPLKLHTDRSAGTPVFVPEQGGYKEKFVKTVEDKYKCEKCHLVLCSPKQTECGHRFCESCMAALLSSSSPKCTACQESIVKDKVFKDNCCKREILALQIYCRNESRGCAEQLMLGHLLVHLKNDCHFEELPCVRPDCKEKVLRKDLRDHVEKACKYREATCSHCKSQVPMIALQKHEDTDCPCVVVSCPHKCSVQTLLRSELSAHLSECVNAPSTCSFKRYGCVFQGTNQQIKAHEASSAVQHVNLLKEWSNSLEKKVSLLQNESVEKNKSIQSLHNQICSFEIEIERQKEMLRNNESKILHLQRVIDSQAEKLKELDKEIRPFRQNWEEADSMKSSVESLQNRVTELESVDKSAGQVARNTGLLESQLSRHDQMLSVHDIRLADMDLRFQVLETASYNGVLIWKIRDYKRRKQEAVMGKTLSLYSQPFYTGYFGYKMCARVYLNGDGMGKGTHLSLFFVIMRGEYDALLPWPFKQKVTLMLMDQGSSRRHLGDAFKPDPNSSSFKKPTGEMNIASGCPVFVAQTVLENGTYIKDDTIFIKVIVDTSDLPDP
modifications: full-length
notes: TNF receptor associated factor 3, adaptor protein expressed from pcDNA3
Turning to B2, the “recruitment to p75TNFR compared with the other receptors tested” value in test [3] was “similar”. For the same molecule, in test [1], the “recruitment to LTβR compared with the other receptors tested” value is “similar”. The “recruitment to CD40 mutant E235A” value in test [2] is given as “reduced recruitment”. For the same molecule, the “recruitment to TACI compared with the other receptors tested” value in test [4] is on record as “similar”. For the same molecule, the “recruitment to BCMA compared with the other receptors tested” value in test [5] is “similar”. Also, the “recruitment to CD27 compared with the other receptors tested” value in test [6] was “similar”.

B3: NIK: kinase, a downstream mediator in the NF-κB pathway, recruited to CD40 via TRAF2 (protein, UniProt Q99558 1-947, looked up)
Mitogen-activated protein …: MAVMEMACPGAPGSAVGQQKELPKAKEKTPPLGKKQSSVYKLEAVEKSPVFCGKWEILNDVITKGTAKEGSEAGPAAISIIAQAECENSQEFSPTFSERIFIAGSKQYSQSESLDQIPNNVAHATEGKMARVCWKGKRRSKARKKRKKKSSKSLAHAGVALAKPLPRTPEQESCTIPVQEDESPLGAPYVRNTPQFTKPLKEPGLGQLCFKQLGEGLRPALPRSELHKLISPLQCLNHVWKLHHPQDGGPLPLPTHPFPYSRLPHPFPFHPLQPWKPHPLESFLGKLACVDSQKPLPDPHLSKLACVDSPKPLPGPHLEPSCLSRGAHEKFSVEEYLVHALQGSVSSGQAHSLTSLAKTWAARGSRSREPSPKTEDNEGVLLTEKLKPVDYEYREEVHWATHQLRLGRGSFGEVHRMEDKQTGFQCAVKKVRLEVFRAEELMACAGLTSPRIVPLYGAVREGPWVNIFMELLEGGSLGQLVKEQGCLPEDRALYYLGQALEGLEYLHSRRILHGDVKADNVLLSSDGSHAALCDFGHAVCLQPDGLGKSLLTGDYIPGTETHMAPEVVLGRSCDAKVDVWSSCCMMLHMLNGCHPWTQFFRGPLCLKIASEPPPVREIPPSCAPLTAQAIQEGLRKEPIHRVSAAELGGKVNRALQQVGGLKSPWRGEYKEPRHPPPNQANYHQTLHAQPRELSPRAPGPRPAEETTGRAPKLQPPLPPEPPEPNKSPPLTLSKEESGMWEPLPLSSLEPAPARNPSSPERKATVPEQELQQLEIELFLNSLSQPFSLEEQEQILSCLSIDSLSLSDDSEKNPSKASQSSRDTLSSGVHSWSSQAEARSSSWNMVLARGRPTDTPSYFNGVKVQIQSLNGEHLHIREFHRVKVGDIATGISSQIPAAAFSLVTKDGQPVRYDMEVPDSGIDLQCTLAPDGSFAWSWRVKHGQLENRP
Consider B3, for which, in test [7] (myc-tagged IKKα co-transfected), the “recruitment of NIK to CD40 when IKK was co-expressed” value is “clearly improved”. Further, the “recruitment of NIK to CD40, dependence on adaptor” value in test [7] (with or without TRAF2 co-transfection) is recorded as “TRAF2 dependent”.
